Results as given in patent US20230226096A1 (Orna Therapeutics, Inc., priority 2020, published 2023).

B1: Felipivirus 127F (nucleic acid, listed as Felipivirus sp.)
DNA: GATGTCGGATGACGGCTGGCCACCGGGGAAAAACGGCAAATGTGCACCACCTCTGCAACCCACGCCGACCACGTTTAACCATGGCGTTAGTAGGAGTGGACCACTGCAGTGGGCTCTGGTGTGCGACAGTCAGTGGTAGAGTAGACAGTCCTGACTGGGCAATGGGACCGCGTTGCGTATCCCTAGGTGGCATCGAGATTCCTCTGCTACCCACCAGCGTGGACTCCTATGGGGGGGGCCCCATAGGCTAGGTCTATACTGCCTGATAGGGTCGCGGCTGGTCGACCACTGACTGTATAACCAGTTGTAACTCACT
B2: Boosepivirus A (nucleic acid)
DNA: TTGAAAGACCTCGGCATATATCGTTGTCACAACGGTATATGTCGAGATCTTTCTCCCCACCCCCTCCAATTCCCTTTTCCCCCTCTTGCAACTTAGAAGTTTGTACACACAGGGCAATAGGATACGTGATCCAGCCAGGACACGTGAGCTCAAGCACTTCTGTTTCCCCGTCCCCTTCACGTACTACGGGAATGTTAGTAATTTGTGTGCACTTTAGTAAGGTTGATCCGGGATTAACCCCAAATCCCAGAAACTGGTGATGAGCGTTACCACCCCCGCCGGGCGACCGGAAGGTTTCGCTGCGTTGGCACCAGGGCTTCGGCACCAGAAAAAGGTAAAGCAAATGAAGGCGCTACTGTGCTACGAGAAGTTTCCTCCAGGCCCCTGAATGCGGCTAATCCTAACCAGTGATCCACCGGTGCAAAACCATGTACTAGGTGGTCGTAACGCGCAAGTCGCTGGCGGAACCGACTACTTTGGGTGTCCTGTGTTTCCATATTTTATTTTATTCAATTTTATGGTGACAAGAGTAAAGAGATACAGATTTGCAGCC
modifications: Boosepivirus A
B3: HRVA73 (nucleic acid, listed as Rhinovirus sp.)
DNA: TTAAAACTGGGTTTGGGTTGTTCCCACCCAAACCACCCACGCGGTGTTGTACACTGTTATTCCGGTAACCTTGTACGCCAGTTTTATATCCCTTCCCCCCCTTGTAACTTAGAAGACATGCGAATCGACCAATAGCAGGCAATCAACCAGATTGTCACCGGTCAAGCACTTCTGTTTCCCCGGCTCTCGTTGATATGCTCCAACAGGGCAAAAACAATTGGAGTCGTTACCCGCAAGATGCCTACGCAAAACCTAGTAGCATCTTCGAAGATTTTTGGTTGGTCGCTCAGTTGCTACCCCAGCAATAGACCTGGCAGATGAGGCTAGAAATACCCCACTGGTGACAGTGTTCTAGCCTGCGTGGCTGCCTGCACACCCACACGGGTGTGAAGCCAAAGATTGGACAAGGTGTGAAGAGTCACGTGTGCTCATCTTGAGTCCTCCGGCCCCTGAATGCGGCTAACCTTAACCCCGTAGCCATTGCTCGCAATCCAGCGAGTATATGGTCGTAATGAGTAATTACGGGATGGGACCGACTACTTTGGGTGTCCGTGTTTCACTTTTTACTTATCAATTTGCTTATGGTGACAATATATATAGATATATATTGACACC
B4: Boosepivirus B (nucleic acid)
DNA: TTTTCTCCCCTCCCCCTCCAACTACCTTTTCCCCCTCTTGTAACGCTAGAAGTTTGTGCAAACCGCCTGTAGGGTACTGCAATCCAGCAGTGCATAGGCTAAGCTTTTCTTGTTACCCCACCCCACATTATACTGAGGAGGATTGTGAAATTGTGTTAGTATGGGTTAGTAGCGGTGACCCGGGTAACCCCAACCCAGAAACTCACGGATGAGATGAACAGGACCCCACATGGTAACGTGTGTGTTCGTCTGCCCCGCAAGGTGAGGCCGTGAGAGCTTTGCACGCGAAAACCTTGAAAACCCAAAAGTACCTTGAGCTCTTCGCTATTTTGTGTTTCCTCCAGGACCCTGAATGCGGCTAAACCTAACCCGCGATCCGCACGTAGCAACCCAGCTAGAGTGTGGTCGTAATGCGCAAGTTGCGGGCGGTACCGACTACTTTGGTGTTCCTGTGTTTCCTTTATTTTATTTTGAATTTTTATGGTGACAACAGCTAGAAAATAAGAGTGAAC
modifications: Boosepivirus B
B5: HRVB27 (nucleic acid, listed as Rhinovirus sp.)
DNA: TTAAAACAGCGGATGGGTATCCCACCATCCGACCCACAGGGTGTAGTGCTCTGGTATTTTGTACCTTTGCACGCCTGTTTCCCCATTGTACCCCTCCTTAAATTTCCTCCCCAAGTAACGTTAGAAGTTTAAGGAAACAAATGTACAATAGGAAGCATCACATCCAGTGGTGTTATGTACAAGCACTTCTGTTTCCCCGGAGCGAGGTATAAGTGGTACCCACCGCCGAAAGCCTTTAACCGTTATCCGCCAATCAACTACGTAATGGCTAGTATTACCATGTTTGTGACTTGGTGTTCGATCAGGTGGTTCCCCCCACTAGTTTGGTCGATGAGGCTAGGAACTCCCCACGGGTGACCGTGTCCTAGCCTGCGTGGCGGCCAACCCAGCTTTTGCTGGGACGCCTTTTTACAGACATGGTGTGAAGACCTGCATGTGCTTGATTGTGAGTCCTCCGGCCCCTGAATGCGGCTAACCTTAACCCCGGAGCCTTGCAACATAATCCAATGTTGTTGAGGTCGTAATGAGTAATTCTGGGATGGGACCGACTACTTTGGGTGTCCGTGTTTCCTTTTATTCTTTATATTGTCTTATGGTCACAGCATATATAGCATATATACTGTGATC
B6: Phacovirus Pf-CHK1 (nucleic acid)
DNA: GTGTGTCATTTCTCCCCTCCCCCTCCCAAACCTTTTCCCCCTCTAATCGGATTGATTAACCCGGTTAAAGATGATTAATGGTTTGTGAGTTGATATGATGGCCCGGCATTGAATCCGGGAATTCTTAAGTAATGGAATTGCATCCAATATGAAAGTGAGTGTGGCAAGCTCACAAGTAGTACTTGGCTCTGCCCATTATTTGAGGACCAACTCTTCTTGACTACAATGTGTTTAAAGTAAACTGGACCACATTGTGTATCCAGACAACTCCATTTGATAATGTACGCTGGAAACGTTTTCAGTGCATAGGGTCCTAAAGTGGTGCTGAAATATTGCAAGCTCAATGGGATACTGAACGCTGAAAACCGCCGCTGTTATCATATGGGCCCCTAGTGGGTAAATGTTGGCTTTAGGCATATACTGCTTGGGAATGCAGTACTGGTTGTAGACAGGGTGATAGCCTACCGGCTGGCGTAGTTGAGTTGGTATAGCCAGTTGATTGCCAT
B7: HRVC3 QPM (nucleic acid, listed as Rhinovirus sp.)
DNA: TTAAAGCTGGATCATGGTTGTTCCCACCATGATTACCCACGCGGTGCAGTGGTCTTGTATTACGGTACATTTCCATACCAGTTTTATACACCCCACCCCGAAACTCATAGAAGTTTGTACACAATGACCAATAGGTGGTGGCCATCCAGGTCGCTAATGGTCAAGCACTTCTGTTTCCCCGGCACCCTTGTATACGCTTCACCCGAGGCGAAAAATGAGGTTGTCGTTATCCGCAAAGTGCCTACGAAAAGCCTAGTAACACTTTGAAAACCCATGGTTGGTCGCTCAGCTGTTTACCCAACAGTAGACCTGGCAGATGAGGCTAGACATTCCCCACCAGCGATGGTGGTCTAGCCTGCGTGGCTGCCTGCACACCCTGCCGGGTGTGAAGCCAGAAAGTGGACAAGGTGTGAAGAGCCTATTGTGCTCACTTTGAGTCCTCCGGCCCCTGAATGTGGCTAACCCTAACCCCGTAGCTGTTGCATGTAACCCAACATGTATGCAGTCGTAATGGGCAACTATGGGATGGGACCAACTACTTTGGGTGTCCGTGTTTCCTGTTTTACTTTTTCATTGCTTATGGTGACAATTGTATCTGATACACTTGTTACC

Test system: HEK293 cells
Format: cell-based, human
Conditions: luminescence from secreted Gluc in supernatant 24 hours after transfection of HEK293 cells; circular RNA encoding Gluc with the named IRES (UTR truncated to 675 nt)

Molecule	Expression
B1	8.92E+06
B2	7.07E+07
B3	1.08E+08
B4	1.17E+08
B5	2.04E+08
B6	5.87E+06
B7	1.64E+07
